Experimental data taken from a protein production outcome set (Wang et al. 2014).

assay: label from the status in PepcDB records

**Q.** With “DVAYELPAHTTRAQLSIDLVNNGDVEQQEKINSMRFIVFGSTPGGVRLDVNEHILLSTPETATDIDAQLLEVTSSNDILVVVIANEPQSLTSQLDGIANLLTLQEMIYDISSILNSDGQIISATGMPMTGVIRDISIAPDETKTVQMVIERAVARVDVFIEAIDGGAVTGYTAGSTSVTLHNFSHDSYFVMGNVGNGTRDNADSSKNYGKVKEDVSESNLLTHSWTAATTETWAYSSAPGAENRKLLCSFYTAERLFKSDYSDRLSISMANVLKGPSDVTGITGKVIESVTKVDGTGSPTAQPFTEIRRNNVYQVTARVGKIGIQILTISVEDWGERQDIDLDMDL” as the sequence, how does the protein production read?
**A.** not failed

**Q.** With “DVRVKFEHRGEKRILQFPRPVKLEDLRSKAKIAFGQSMDLHYTNNELVIPLTTQDDLDKAVELLDRSIHMKSLKILLVINGSTQATNLEP” as the sequence, how does the protein production read?
**A.** not failed

**Q.** For “DWLDLNTTSSVETGQAIVTLDDAQIALNGIYRLASGHSYYGDNYWYYGDCRAADVQARITKGDGKRVSPYYEYNVLASDNLNIVLPWNTVYKVIRQTNNLIQKIESGSIQSSDTKELNRIKSEALVMRGLSLFNLTRLFGMPYTNDKGASLGVPIETSPSDPTHKPSRSTVAQCYEQVVSDMSNALSGLRQETSNGYINYWAAQALLSRVYLNMGEYQKAYDAATDVIKNNGGRYQLYSYEEYPNVWGQDFQSESLFELYITLSEPSGGTGGEGAPMVYANEATVDWNNLILSEDFLNLLNEDPKDVRHCLTKESVIENNTGLPAAAMHEKVYLAKFPGKTGDDPKTNNICIIRLSEVYLNAAEAGLKKGTDIEEAQGYLNDIISRRTTDTSQQVSTETFTLDRILKERRKELVGEGEVFYDYLRNGLAIERKGSWHLETLKASNAQKIEATDLRIALPIPQSEIDANPNIQQNPR”, which protein production is on record?
**A.** not failed

**Q.** With “EADYKQATALELATLVREKKVTSEELVKIALAITKRENPTLNAVITLREEAALTEAKALQDTGQPFLGVPLLLKGLGQSLKGESNTNGFGFLQDQVAGGTSTFVKALQNAGFIIIGQTNYPELGWKNISDSKLYGVSVNPWNPNHYSGGSSGGAGASVAAAFVPIASGSDAGGSIRIPASWTGTVGLKPSRGVIIGNSNSAKGQTVHFGLSRTVADTNALFETLLTKKDLPAGHLSQAQPIAYTTESPAGTPISAEAKEAVAEAVAFLKDQGYTLVEVKHPVDGERLMKNYYTVAAGSAGIADFMARQKLKRPLERNDVELLTWALFQTGKNITSEETTAAWTDIALQAQAMDEFYQQYPILLTPTTAATAPSIDNPLLKPEHAAQMEKIDQLSPAEQKQLIYDQWLTAFTYTPFTQQANLFGHPALSVPTYVSKEGLPLGIQFNSALNEDRTLLQLGALFENNHK” as the sequence, how does the protein production read?
**A.** failed

**Q.** With “EAERVSVEHTSANPTGPLHIGRARNSIIGDSIYRILSRYGYRTVRQYFVNDSGKQMISLYTAYIKYGGPITIENLLENYQKIYREMEKDQSIEKEIEKNIERYENADPEVFGTLRKIAGVMLDGIASTLKRIGIEFDEFDWESDLLLNGSVRKAIDMLETKEEDSARYIEISGKKVFLTRKDGTTLYFARDIAYHLFKAENSEWIIDVLGEDHKDHAKSLNHVLKEMLKLENRVSFMYYSFITLETGKMSTRRGNIVTLQDLVDRTYDEALKIVNEKRPDLSEEERKKIAEVIASSAVRYSIIRVSAPKPITFRWEEALNFESNSAPFIMYS” as the sequence, how does the protein production read?
**A.** failed

**Q.** With “EAGYEAGTEYLNLDEQPATILDAEHLGIETKEPITIIERLRTANHKPVVYCLDKIAKTYLTCTDYQQSSGSMLEAIKASTNHQIMHAEMDLEAISYEPHISEVLNASPHEGLMLLKVVHYDEKHQPILYSLNYIKSSLVKFTITKSE” as the sequence, how does the protein production read?
**A.** not failed

**Q.** With “EDLSAQPVQTKFPAYERVVLREAGFLRPVTIFGPIADVAREKLAREEPDIYQIAKSEPRDAGTDQRSSGIIRLHTIKQIIDQDKHALLDVTPNAVDRLNYAQWYPIVVFLNPDSKQGVKTMRMRLCPESRKSARKLYERSHKLRKNNHHLFTTTINLNSMNDGWYGALKEAIQQQQNQLVWVSEGKADGAT” as the sequence, how does the protein production read?
**A.** failed

**Q.** With “EEWLDILGNGLLRKKTLVPGPPGSSRPVKGQVVTVHLQTSLENGTRVQEEPELVFTLGDCDVIQALDLSVPLMDVGETAMVTADSKYCYGPQGSRSPYIPPHAALCLEVTLKTAVDRPDLEM” as the sequence, how does the protein production read?
**A.** not failed

**Q.** With “EFVINPNGKSEVCILHEYMQRVLKVRPVYNFFECENPSEPFGASVTIDGVTYGSGTASSKKLAKNKAARATLEILIPDFVKQTSE” as the sequence, how does the protein production read?
**A.** not failed

**Q.** With “EIEICPKVTQSIHIEKSDTAADTYGFSLSSVEEDGIRRLYVNSVKETGLASKKGLKAGDEILEINNRAADALNSSMLKDFLSQPSLGLLVRTYPELEEGVE” as the sequence, how does the protein production read?
**A.** not failed

**Q.** With “EIILANISDTVFVTDLSGKFTFICSNIDNIFGYSLAEVNAMGTVETLLGDFRFNEYELKEKGELKNLRHDVQDKQGKIHYLLINLKKVAINGGIYLYSCRDISE” as the sequence, how does the protein production read?
**A.** failed

**Q.** Which protein production does the source give for “EKITILADAIPELHVEEANDKVMGSIDWEAALKQSAGKEDLAQEMLQMLVDFIPEVNEWIDKALESDISEEELCHYIHKLHGSSSYCGVPRLKQLCNLIETSLRQHQTISDIEPELFELQDEMEKVTKDANLLLSN” here?
**A.** not failed

**Q.** For “ELDDATCDDIYSGYLKAYEQNWTAYPDAKGVLDRAVATGAPVGILTNGAAPMQQDKLDRTGLGLPELVMLAASTLDSAKPRPEMYARALTHLGARTATIIGDDWTNDVAAPRELGWNALYLDRSGTDPRADIHSLDELFH”, which protein production is on record?
**A.** failed

**Q.** With “ELREARLNAFFSGAPVGMSILDNQLRFVQINELIAHIHGKPAQEHIGKTLEEIAPRIAPLVTPLCQKVLLTGQPILNVELSLPAVNQADSLRHFLVSYFPIPGEGNQLSGVGKVIVEISDVYDELRLRKRAEEALKESI” as the sequence, how does the protein production read?
**A.** not failed

**Q.** For “EMVDDQAMNEQLYYYFDPGDFKPPLVVYFSGFRLALGVEGANMMRALEAPALIFGEQRILGGSFYVGSKKFEQEIVRIIQTTLKKLGFTANQLVLSGLSMGTYASLYY”, which protein production is on record?
**A.** failed

**Q.** Which protein production does the source give for “ENGSRKQLYRLDLKTLEISQIQTGEDVVQWFGVATDNGAVWYSGQSANNADRLYRLDGTKGKLVWDLSAEKLANIDFTPARDWNYTAPDGTVVEGWYYLPPQFDPSKKYPMLVYYYGGTSPINRTLEGHYSLAMYAAQGYVVYTLNPSGTTGYGQEYAARHVNAWGDRTADEIIGATKEFIRTHSFVNGKK” here?
**A.** failed

**Q.** With “ENIKTILLTVLVVISLVFTWGIWTFQPNFSEGSSSTESTVRVKHKIEKTTQKLSETVRPRDMFIHDDGAHYKVDDNALYEEIWSDLPHWDVKGIKDISDQYDKAGFKSWFYGIGGSEAKLDLQFSDTIPIDIFQTLFKWSNQSFEYSSFDHILIPFNETKANKKIYLVSYSKQLILEVTVESANYRNIMNDLKNRQSNMPAFSLFSIGSKKEFLLPNKPLTMDKKEFVTESIKTNTFKQALFSDPSIVREDSNYNNRNVLTDGISRLDVNLSQRQVQFQQRNLVQSTSYQTGELIKKSQKYLEDTGSWTDHYQFFNINDSQQLSFYIFMDQIPVINSTAKPFGATSAITVQWANDDILSYKRPNYSLGTNPIKTSETELMGGSEVKMLLSKQTAYDTDKIDQIFLAYQLVSTSTNDDPLVELEPVWAMKVNGKIVPITKDLLRKEGANSGVE” as the sequence, how does the protein production read?
**A.** failed

**Q.** Which protein production does the source give for “EPAPRGFLLIGANRVAREIGQALARYDRRVLMTDSNWEYISQVRMMGLDYYYGNPISSHADDNLNMIGIGQVVALTPDQHFNIMACMQF” here?
**A.** failed

**Q.** Which protein production does the source give for “EPEKLGQALTEVYAKANSFTVSSVAAPSWLHRFIIGKKGQNLAKITQQMPKVHIEFTEGEDKITLEGPTEDVSVAQEQIEGMVKDLINR” here?
**A.** not failed

**Q.** Which protein production does the source give for “EPPDERAVADGWQQLVELGAVDSQHVLTAIGREMARLPVDVKSARMLVAARQHGCVHEMTVIAAFLGVQDPRERPPEAREAADNAHAKFADAR” here?
**A.** not failed

**Q.** Which protein production does the source give for “EQEDKVSGEKTLAVVSASSDDRPSTRGIINDNTYALGVFRTTANTYAPLYNVKHIYSGGEWGADDVIKVDYRNASFFAYYPYHTATGNYAGLAGGTTLTLQAQLFNAGEDICYGAGEASGGGPVSVYNPFVEFLNMKHAYARLRLTLTRGEKFDKTKKCNIQNITFKSNNANFYLTRSLDIASTAGATGGSAVAAGYVHNPNVNIATGKSVTYEYMFPPQPLDGSKLTILVTVDGVTRSCDISTLGSSLDSGKYYGVSLTFTDVGIILSSAVVTVNNFGGQGNTQVDTEL” here?
**A.** not failed

**Q.** Which protein production does the source give for “EQQADGTWLMDGWISIRKASNLLEHDLVDEAERYSTLGGYLLWQFGYIPAAGEQITVDGLIFEIVSVNKHNIGKVRVHRTQ” here?
**A.** not failed

**Q.** For “EREEEPAVQGNPDESLTVEGALEYVELAPQLNLPQQEEDADFHTVAGLIMEELQTIPDVGDFADFHGWRFEVVEKEGQRIERVKITKLP”, which protein production is on record?
**A.** not failed

**Q.** For “ERLETAQDLLELEGITPELAAKLAERQVHTRDDLAELSTDELAEIAGLQEEEASDLIMRARAHWFDEE”, which protein production is on record?
**A.** failed

**Q.** For “ERLILCSPYFIPDESLLEAVTSACYRGVTVELFVSEQADQFAIDHAQSSYYQALLEAGVKIYQFPKPDVLHTKYMIADPDDTTGNEALGVLGSSNLDIRSFGLNYEISLMIAKGNLIHELNALTDRYRTVSFKLTLDKWNQR”, which protein production is on record?
**A.** failed

**Q.** For “ERRLCAILAADMAGYSRLMERNETDVLNRQKLYRRELIDPAIAQAGGQIVKTTGDGMLARFDTAQAALRCALEIQQAMQQREEDTPRKERIQYRIGINIGDIVLEDGDIFGDAVNVAARLEAISEPGAICVSDIVHQITQDRVSEPFTDLGLQKVKNITRPIRVWQWVPDADRDQSHDPQPSHVQH”, which protein production is on record?
**A.** not failed

**Q.** Which protein production does the source give for “ESICLIGHSLGGDLARYFASEFEEVKKLILLDGGYLDLDKILPLDTELEETKNYIKSQIVSDLDVLTSKEKSEAKHWSENMEKAVRQSYHWNVEYNRYELAINYENIEAILRLRRKIQAFKREVGDTLFISPRYPNEATWREEALKELPDYFDTIFLENFGHELYTQAPKEIASLMNEWL” here?
**A.** failed

**Q.** For “ESKYIEYKKSRKGLSNDIWSTYSAFANTEGGTIYLGIEEKKIEDKKVFVSVGVEDPEKMIEDFWNALYGRSKVSQNILSNKDVKIVNIENKACIEIHVPEAPYSKKPIYVDNKKDLVYKRVDDADRIATEEEYKFMIVNSQDDIDTELLDNYDMSDLNHESIENYRKLLLKNTNDERYANMSQLDLMIDLGAYRKDRSSKDKQYKMTTACLLFFGKYNAISDRFPGFQLDYFKKTNYLDTDWKDRISSGDLGNEDLNVYSFFEKVLIKLTDNIEESFSLNDGLTRQNYARDLKVAIREALVNTLMHAYYDTKQSIKIVNCEDFIEFYNPGNMRINKEDFIHGGHSKDRNSILSTLFRRVGYSEKAGSGGPRIFDVVNRHKLKTPEIELTDMDTNVVLWKQDLMKEFEKYPELDKKVIKYIIDYGSISKGEALKMENMTEYQFRNILKKLKDDNLIKKEGEGPATKYVL”, which protein production is on record?
**A.** failed

**Q.** For “ESTLVNENVLENIPMGIIVVDINCNITSINDYALNIMDKNIESVIGMPVLDIIPTSDTPLVIKTKEKKLGKTQHINKHIVISNCCPIISNNNVIGALCVFQDIS”, which protein production is on record?
**A.** failed

**Q.** For “EVGVNMAVTPGKVIFQNEIMQLIQYEPATATVQRTPLLIVPPWINKYYILDLKPEKSFIKWCVDQGLTVFVISWVNPDKSLADKDFADYMKLGPLTAMDVVEKVTGEMKVHTLGYCVGGTLLASTLAWLAERRRVRVTSATFLTTQVDFTHAGDLMVFVDEEQISAVEREMKVTGVLEGAKMAMAFNMLRPNDLIWSYVVNNYLKGQPPQAFDLLHWNSDATRMPAANHSYYLRNCYLDNKLSAGTMVLDNTTLDLTKVKVPIYNLATREDHIAPAESVLYGSQFFGGPVKFVLSGSGHI”, which protein production is on record?
**A.** failed

**Q.** Which protein production does the source give for “EWQHRGYGRELLAEAERIAREEFDAKKMLIISGVGVREYYRKFGYRKDGPYVSKRLDKRYADYKRTNRFDAELNT” here?
**A.** failed

**Q.** For “EYSENNAPLFIRAVNSVASTTGAPPWANLVSILEEKNGADPELLVYTVTLINKTLAALPDQDSFYDVTDALEQQGMEALVQRHLGTAGTDVDLRTQLVLYENALKLEDGDI”, which protein production is on record?
**A.** failed
